Data on one molecule can be found in paper PMC6706415, “Inhibition of amyloid beta toxicity in zebrafish with a chaperone-gold nanoparticle dual strategy” (Nature Communications, 2019).

This assay has as its target T1, amyloid beta 42 monomers (UniProt P05067 672-713).
T1 construct: Aβ42, the 42-residue peptide derived from amyloid precursor protein (APP) by proteolysis; HFIP-treated Aβ was considered as Aβm; The peptide fibrillizes during 48 h incubations at 37 °C; also called Aβ42; Aβ; source: bought: Anaspec Inc., purity ≥ 95%; HFIP-treated
The assay is described as follows: zeta potential + dynamic light scattering + TEM + CD; Aβ (100 µM; for TEM the ThT ratio, 50 µM Aβ to 6.25 µM βCas) with βCas or βCas AuNPs (12.5 µM βCas equivalent), 48 h at 37 °C in deionized water. The settings on record: both partners purified.

B1: β casein (natural protein, UniProt P02666 16-224, looked up)
chain: RELEELNVPGEIVESLSSSEESITRINKKIEKFQSEEQQQTEDELQDKIHPFAQTQSLVYPFPGPIPNSLPQNIPPLTQTPVVVPPFLQPEVMGVSKVKEAMAPKHKEMPFPKYPVEPFTESQSLTLTDVENLHLPLPLLQSWMHQPHQPLPPTVMFPPQSVLSLSQSKVLPVPQKAVPYPQRDMPIQAFLLYQEPVLGPVRGPFPIIV
notes: β casein (βCas); Free βCas, which forms micelles in water; Probably the milk protein, which is naturally phosphorylated (surmise); also called βCas micelles
Regarding B1, the binding result is “binds”.
